{"source": "paper PMC2955668", "key": {"[1]": {"target": "SIV_(MAC239)-HFNef (SIVmac239)", "assay": "co-IP; membrane-associated protein fraction of co-transfected 293T cells, solubilised in Buffer B plus 0.5% IGEPAL CA-630; anti-HA monoclonal antibody precipitates the HF-tagged Nef, untagged Nef detected by Western blot; fractional dimerization (FD) estimated from band densities assuming strict dimers and a binomial distribution"}, "[2]": {"target": "SF2-HFNef (HIV-1 (SF2)) (UniProt P03407)", "sequence (P03407 whole entry)": "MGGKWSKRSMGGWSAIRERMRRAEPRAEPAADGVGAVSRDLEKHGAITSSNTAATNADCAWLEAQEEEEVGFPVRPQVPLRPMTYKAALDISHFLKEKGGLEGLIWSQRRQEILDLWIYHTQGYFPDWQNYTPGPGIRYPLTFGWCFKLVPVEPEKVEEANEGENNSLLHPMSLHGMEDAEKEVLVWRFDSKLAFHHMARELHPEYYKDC", "assay": "co-IP; cytosolic (soluble, high speed supernatant) fraction of co-transfected 293T cells in Buffer B; anti-HA monoclonal antibody precipitates the HF-tagged Nef, untagged Nef detected by Western blot; FD estimated from band densities"}, "[3]": {"target": "NA7-HFNef (HIV-1 (NA7))", "assay": "co-IP; cytosolic (soluble, high speed supernatant) fraction of co-transfected 293T cells in Buffer B; anti-HA monoclonal antibody precipitates the HF-tagged Nef, untagged Nef detected by Western blot; FD estimated from band densities"}, "[4]": {"target": "SF2-HFNef (HIV-1 (SF2)) (UniProt P03407)", "assay": "co-IP; membrane-associated protein fraction of co-transfected 293T cells, solubilised in Buffer B plus 0.5% IGEPAL CA-630; anti-HA monoclonal antibody precipitates the HF-tagged Nef, untagged Nef detected by Western blot; fractional dimerization (FD) estimated from band densities assuming strict dimers and a binomial distribution"}, "[5]": {"target": "NA7-HFNef (HIV-1 (NA7))", "assay": "co-IP; membrane-associated protein fraction of co-transfected 293T cells, solubilised in Buffer B plus 0.5% IGEPAL CA-630; anti-HA monoclonal antibody precipitates the HF-tagged Nef, untagged Nef detected by Western blot; fractional dimerization (FD) estimated from band densities assuming strict dimers and a binomial distribution"}}, "data": [{"substance": "SIV_(MAC239)Nef (natural protein)", "values": [{"measurement": "fractional dimerization (FD)", "setting": "[1]", "result": 0.37}]}, {"substance": "NA7Nef (natural protein)", "values": [{"measurement": "fractional dimerization (FD)", "setting": "[2]", "result": 0.23}, {"measurement": "fractional dimerization (FD)", "setting": "[3]", "result": 0.35}, {"measurement": "fractional dimerization (FD)", "setting": "[4]", "result": 0.48}, {"measurement": "fractional dimerization (FD)", "setting": "[5]", "result": 0.52}]}]}
